Data from US20100022453A1.

How the values were obtained:
[1] = biological target: rat NgR1 (Nogo-66 receptor), full-length, expressed on cells (rat) (UniProt Q99M75); assay: cell-based or functional assay
[2] = biological target: mouse NgR1, endogenous in acute hippocampal slices (mouse) (UniProt Q99PI8); assay: cell-based or functional assay
Sequence of mouse NgR1, endogenous in acute hippocampal slices (mouse) (Q99PI8 27-447): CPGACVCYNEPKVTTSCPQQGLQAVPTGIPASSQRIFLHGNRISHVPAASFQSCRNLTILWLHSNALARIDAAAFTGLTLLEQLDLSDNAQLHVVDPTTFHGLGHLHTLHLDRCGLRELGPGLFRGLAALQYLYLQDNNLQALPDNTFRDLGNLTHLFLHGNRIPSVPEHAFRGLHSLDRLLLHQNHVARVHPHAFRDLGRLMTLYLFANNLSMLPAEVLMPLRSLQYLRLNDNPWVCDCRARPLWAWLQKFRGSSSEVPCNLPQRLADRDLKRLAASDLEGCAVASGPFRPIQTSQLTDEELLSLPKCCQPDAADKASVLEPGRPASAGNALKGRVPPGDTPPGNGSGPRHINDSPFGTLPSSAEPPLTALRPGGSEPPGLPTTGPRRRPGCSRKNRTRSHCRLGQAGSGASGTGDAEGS

Sequence of rat NgR1 (Nogo-66 receptor), full-length, expressed on cells (rat) (Q99M75 27-447 limits assumed): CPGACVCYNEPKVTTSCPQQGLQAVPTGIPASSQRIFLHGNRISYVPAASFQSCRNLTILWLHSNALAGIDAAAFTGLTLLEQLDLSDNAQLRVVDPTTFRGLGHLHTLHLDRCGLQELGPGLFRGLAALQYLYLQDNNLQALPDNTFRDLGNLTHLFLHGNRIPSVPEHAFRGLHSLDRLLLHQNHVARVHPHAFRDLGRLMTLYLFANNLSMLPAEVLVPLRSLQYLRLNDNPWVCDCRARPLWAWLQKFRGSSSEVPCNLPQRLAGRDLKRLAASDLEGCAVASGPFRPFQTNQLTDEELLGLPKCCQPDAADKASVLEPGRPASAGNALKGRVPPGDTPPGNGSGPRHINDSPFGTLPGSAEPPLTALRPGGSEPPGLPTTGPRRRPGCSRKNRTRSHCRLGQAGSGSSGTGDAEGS

Question: How did the percentage of cells with processes longer than two cell bodies in diameter, PC12^NgR1 line NgR1-1, 25 ng/ml FGF2 [1] turn out when FGF2 (Peprotech), unlabeled (ligand) was run?
Answer: 5.6%

Question: What about the percentage of cells with processes longer than two cell bodies in diameter, PC12^NgR1 line NgR1-2, 25 ng/ml FGF2 [1] of the same substance?
Answer: 7.2%

Question: And the percentage of cells with processes longer than two cell bodies in diameter, control PC12 cells (very low endogenous NgR1), 25 ng/ml FGF2 [1]?
Answer: 19.8%

Question: And the HFS-induced LTP at Schaffer collateral-CA1 synapses, mean fEPSP % of baseline, NgR1 null slices with FGF2 (10 µg/ml) (% of baseline) [2]?
Answer: 165

Question: What about the HFS-induced LTP at Schaffer collateral-CA1 synapses, mean fEPSP % of baseline, wild-type slices with FGF2 (10 µg/ml) (% of baseline) [2] of the same substance?
Answer: 139
